# B1: ZNF449 (parent)
# chain: HTGERPYECTVCKKRFTRRSHLIG
# Variants of: B1
# Test: protein stability index of a GFP-peptide fusion (GPS, HEK-293T) (PSI 1-6); higher = more stable
# Settings: c terminus: a fixed tail appended
# 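Note: lentivirally expressed fusions sorted by FACS into six bins by GFP to DsRed ratio, PSI derived from sequencing read proportions per bin multiplied by bin number.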
row,Variant,protein stability index
1,HTGARPYECTVCKKRFTRRSHLIG [E4A],1.42
2,HTGCRPYECTVCKKRFTRRSHLIG [E4C],2.26
3,HTGDRPYECTVCKKRFTRRSHLIG [E4D],1.82
4,HTGFRPYECTVCKKRFTRRSHLIG [E4F],1.9
5,HTGGRPYECTVCKKRFTRRSHLIG [E4G],1.55
6,HTGHRPYECTVCKKRFTRRSHLIG [E4H],2.17
7,HTGIRPYECTVCKKRFTRRSHLIG [E4I],1.66
8,HTGKRPYECTVCKKRFTRRSHLIG [E4K],1.7
9,HTGLRPYECTVCKKRFTRRSHLIG [E4L],1.5
10,HTGMRPYECTVCKKRFTRRSHLIG [E4M],2.24
11,HTGNRPYECTVCKKRFTRRSHLIG [E4N],2.15
12,HTGPRPYECTVCKKRFTRRSHLIG [E4P],2.04
13,HTGQRPYECTVCKKRFTRRSHLIG [E4Q],2.66
14,HTGRRPYECTVCKKRFTRRSHLIG [E4R],1.96
15,HTGSRPYECTVCKKRFTRRSHLIG [E4S],2.53
16,HTGTRPYECTVCKKRFTRRSHLIG [E4T],2.76
17,HTGVRPYECTVCKKRFTRRSHLIG [E4V],2.02
18,HTGWRPYECTVCKKRFTRRSHLIG [E4W],1.8
19,HTGYRPYECTVCKKRFTRRSHLIG [E4Y],1.58
20,HTGEAPYECTVCKKRFTRRSHLIG [R5A],1.96
21,HTGECPYECTVCKKRFTRRSHLIG [R5C],3.5
22,HTGEEPYECTVCKKRFTRRSHLIG [R5E],2.33
23,HTGEFPYECTVCKKRFTRRSHLIG [R5F],1.76
24,HTGEGPYECTVCKKRFTRRSHLIG [R5G],2.24

row,Variant,protein stability index
1,HTGEHPYECTVCKKRFTRRSHLIG [R5H],2.67
2,HTGEIPYECTVCKKRFTRRSHLIG [R5I],2.19
3,HTGEKPYECTVCKKRFTRRSHLIG [R5K],1.99
4,HTGELPYECTVCKKRFTRRSHLIG [R5L],2.09
5,HTGEMPYECTVCKKRFTRRSHLIG [R5M],2.24
6,HTGENPYECTVCKKRFTRRSHLIG [R5N],1.64
7,HTGEPPYECTVCKKRFTRRSHLIG [R5P],2.01
8,HTGEQPYECTVCKKRFTRRSHLIG [R5Q],2.23
9,HTGESPYECTVCKKRFTRRSHLIG [R5S],2.7
10,HTGETPYECTVCKKRFTRRSHLIG [R5T],3
11,HTGEVPYECTVCKKRFTRRSHLIG [R5V],2.07
12,HTGEWPYECTVCKKRFTRRSHLIG [R5W],2
13,HTGEYPYECTVCKKRFTRRSHLIG [R5Y],2.82
14,HTGERAYECTVCKKRFTRRSHLIG [P6A],2.67
15,HTGERDYECTVCKKRFTRRSHLIG [P6D],2.52
16,HTGEREYECTVCKKRFTRRSHLIG [P6E],2.34
17,HTGERFYECTVCKKRFTRRSHLIG [P6F],1.75
18,HTGERGYECTVCKKRFTRRSHLIG [P6G],2.77
19,HTGERHYECTVCKKRFTRRSHLIG [P6H],2.64
20,HTGERIYECTVCKKRFTRRSHLIG [P6I],2.08
21,HTGERKYECTVCKKRFTRRSHLIG [P6K],2.02
22,HTGERLYECTVCKKRFTRRSHLIG [P6L],1.58
23,HTGERMYECTVCKKRFTRRSHLIG [P6M],2.74
24,HTGERNYECTVCKKRFTRRSHLIG [P6N],2.3

row,Variant,protein stability index
1,HTGERQYECTVCKKRFTRRSHLIG [P6Q],3.29
2,HTGERRYECTVCKKRFTRRSHLIG [P6R],1.82
3,HTGERTYECTVCKKRFTRRSHLIG [P6T],2.58
4,HTGERVYECTVCKKRFTRRSHLIG [P6V],3.36
5,HTGERWYECTVCKKRFTRRSHLIG [P6W],2.38
6,HTGERYYECTVCKKRFTRRSHLIG [P6Y],2.22
7,HTGERPAECTVCKKRFTRRSHLIG [Y7A],2.8
8,HTGERPCECTVCKKRFTRRSHLIG [Y7C],3.74
9,HTGERPDECTVCKKRFTRRSHLIG [Y7D],2.6
10,HTGERPEECTVCKKRFTRRSHLIG [Y7E],2.88
11,HTGERPFECTVCKKRFTRRSHLIG [Y7F],1.44
12,HTGERPGECTVCKKRFTRRSHLIG [Y7G],2.01
13,HTGERPHECTVCKKRFTRRSHLIG [Y7H],2.06
14,HTGERPIECTVCKKRFTRRSHLIG [Y7I],2.62
15,HTGERPKECTVCKKRFTRRSHLIG [Y7K],2.44
16,HTGERPLECTVCKKRFTRRSHLIG [Y7L],3.39
17,HTGERPMECTVCKKRFTRRSHLIG [Y7M],2.11
18,HTGERPPECTVCKKRFTRRSHLIG [Y7P],2.07
19,HTGERPQECTVCKKRFTRRSHLIG [Y7Q],2.21
20,HTGERPRECTVCKKRFTRRSHLIG [Y7R],2.12
21,HTGERPSECTVCKKRFTRRSHLIG [Y7S],2.28
22,HTGERPTECTVCKKRFTRRSHLIG [Y7T],2.71
23,HTGERPWECTVCKKRFTRRSHLIG [Y7W],1.4
24,HTGERPYACTVCKKRFTRRSHLIG [E8A],1.77

row,Variant,protein stability index
1,HTGERPYCCTVCKKRFTRRSHLIG [E8C],2.38
2,HTGERPYDCTVCKKRFTRRSHLIG [E8D],2.72
3,HTGERPYFCTVCKKRFTRRSHLIG [E8F],1.84
4,HTGERPYGCTVCKKRFTRRSHLIG [E8G],1.84
5,HTGERPYHCTVCKKRFTRRSHLIG [E8H],2.12
6,HTGERPYICTVCKKRFTRRSHLIG [E8I],2.74
7,HTGERPYKCTVCKKRFTRRSHLIG [E8K],1.96
8,HTGERPYLCTVCKKRFTRRSHLIG [E8L],2.77
9,HTGERPYNCTVCKKRFTRRSHLIG [E8N],1.79
10,HTGERPYPCTVCKKRFTRRSHLIG [E8P],1.94
11,HTGERPYQCTVCKKRFTRRSHLIG [E8Q],2.76
12,HTGERPYRCTVCKKRFTRRSHLIG [E8R],2.22
13,HTGERPYSCTVCKKRFTRRSHLIG [E8S],2.32
14,HTGERPYTCTVCKKRFTRRSHLIG [E8T],2
15,HTGERPYVCTVCKKRFTRRSHLIG [E8V],2.35
16,HTGERPYWCTVCKKRFTRRSHLIG [E8W],2.23
17,HTGERPYYCTVCKKRFTRRSHLIG [E8Y],2.15
18,HTGERPYEATVCKKRFTRRSHLIG [C9A],3.85
19,HTGERPYEDTVCKKRFTRRSHLIG [C9D],4.05
20,HTGERPYEETVCKKRFTRRSHLIG [C9E],3.31
21,HTGERPYEFTVCKKRFTRRSHLIG [C9F],2.39
22,HTGERPYEGTVCKKRFTRRSHLIG [C9G],3.94
